The DeepSol protein solubility set

Assay: soluble on expression in E. coli; label from the status in PepcDB or PDB records

Row | Sequence | soluble on expression in E. coli
1 | GSPEFMALTQSLKLSNGVMMPVLGFGMWKLQDGNEAETATMWAIKSGYRHIDTAAIYKNEESAGRAIASCGVPREELFVTTKLWNSDQGYESTLSAFEKSIKKLGLEYVDLYLIHWPGKDKFIDTWKAFEKLYADKKVRAIGVSNFHEHHIEELLKHCKVAPMVNQIELHPLLNQKALCEYCKSKNIAVTAWSPLGQGHLVEDARLKAIGGKYGKTAAQVMLRWEIQAGVITIPKSGNEARIKENGNIFDFELTAEDIQVIDGMNAGHRYGPDPEVFMNDF | soluble
2 | GSPEFMIGEEVPSDQYYWAPLAQHERGSLASLDSLRKGGPPPPNWRQPELPEVIAMLGFRLDAVKSNAAAYLQHLCYRNDKVKTDVRKLKGIPVLVGLLDHPKKEVHLGACGALKNISFGRDQDNKIAIKNCDGVPALVRLLRKARDMDLTEVITGTLWNLSSHDSIKMEIVDHALHALTDEVIIPHSGWEREPNEDCKPRHIEWESVLTNTAGCLRNVSSERSEARRKLRECDGLVDALIFIVQAEIGQKDSDSKLVENCVCLLRNLSYQVHREIPQAERYQEAAPNVANNTGTSPARGYELLFQPEVVRIYISLLKESKTPAILEASAGAIQNLCAGRWTYGRYIRSALRQEKALSAIADLLTNEHERVVKAASGALRNLAVDARNKELIGKHAIPNLVKNLPGGQQNSSWNFSEDTVISILNTINEVIAENLEAAKKLRETQGIEKLVLINKSGNRSEKEVRAAALVLQTIWGYKELRKPLEKEGWKKSDFQVNLNNASRSQSSHSYDDSTLPLIDRNQKSDKKPDREEIQMSNMGSNTKSLDNNYSTPNERGDHNRTLDRSGDLGDMEPLKGTTPLMQKI | soluble
3 | GSPIPHHDEKTWNVGSSNRNKAENLLRGKRDGTFLVRESSKQGCYACSVVVDGEVKHCVINKTATGYGFAEPYNLYSSLKELVLHYQHTSLVQHNDSLNVTLAYPVYAQQRR | soluble
4 | GSPLPAAGFKKQQRKFQYGNYCKYYGYRNPSCEDGRLRVLKPEWFRGRDVLDLGCNVGHLTLSIACKWGPSRMVGLDIDSRLIHSARQNIRHYLSEELRLPPQTLEGDPGAEGEEGTTTVRKRSCFPASLTASRGPIAAPQVPLDGADTSVFPNNVVFVTGNYVLDRDDLVEAQTPEYDVVLCLSLTKWVHLNWGDEGLKRMFRRIYRHLRPGGILVLEPQPWSSYGKRKTLTETIYKNYYRIQLKPEQFSSYLTSPDVGFSSYELVATPHNTSKGFQRPVYLFHKARSPSH | soluble
5 | GSRRASVGSMSKKPPNRPGITFEIGARLEALDYLQKWYPSRIEKIDYEEGKMLVHFERWSHRYDEWIYWDSNRLRPLERPALR | soluble
6 | GSSGSSGMQAGKPILYSYFRSSCSWRVRIALALKGIDYEIVPINLIKDGGQQFTEEFQTLNPMKQVPALKIDGITIVQSLAIMEYLEETRPIPRLLPQDPQKRAIVRMISDLIASGIQPLQNLSVLKQVGQENQMQWAQKVITSGFNALEKILQSTAGKYCVGDEVSMADVCLVPQVANAERFKVDLSPYPTISHINKELLALEVFQVSHPRRQPDTPAELRT | soluble
7 | GSSVSSVPTKLEVVAATPTSLLISWDAPMSSSSVYYYRITYGETGGNSPVQEFTVPYSSSTATISGLSPGVDYTITVYAWGEDSAGYMFMYSPISINYRTC | soluble
8 | GSYAEGQKKRRNTLHEFKKSAKTTLTKEDPLLKIKTKKVNSADECANRCIRNRGFTFTCKAFVFDKSRKRCYWYPFNSMSSGVKKGFGHEFDLYENKDYIRNCIIGKGGSYKGTVSITKSGIKCQPWNSMIPHEHSFLPSSYRGKDLQENYCRNPRGEEGGPWCFTSNPEVRYEVCDIPQCSEV | soluble
9 | GSYCPRNLHLLPTTDTYLSKVSDDPDNLEDVDDEELNAHLLNEEASKLKERIWIGLNADFLLEQESKRLKQE | soluble
10 | GTSPIQTPINTMSQQYTLPPLPYPYDALQPYISQQIMELHHKKHHQTYVNGLNAALEAQKKAAEATDVPKLVSVQQAIKFNGGGHINHSLFWKNLAPEKSGGGKIDQAPVLKAAIEQRWGSFDKFKDAFNTTLLGIQGSGWGWLVTDGPKGKLDITTTHDQDPVTGAAPVFGVDMWEHAYYLQYLNDKASYAKGIWNVINWAEAENRYIAGDKGGHPFMKL | soluble
11 | GTVQEIMIPAGKAGLVIGKGGETIKQLQERAGVKMILIQDGSQNTNVDKPLRIIGDPYKVQQACEMVMDILRERDQGGFGDRNEYGSRIGGGIDVPVPRHSVGVVIGRSGEMIKKIQNDAGVRIQFKQDDGTGPEKIAHIMGPPDRCEHAARIINDLLQSLRSG | soluble
12 | GVKCEPFEHLVIDTPQDFSGAIIERLGKRKAEMKAMNPMSDGYTRLEFEIPARGLIGYRSEFLTDTKGEGVMNHSFLEFRPFSGSVESRKNGALISMENGEATAFSLFNIQERGTLFINPQTKVYVGMV | not soluble
13 | GYDCLGYYQNQEDIMNSPKRQSSVNLGAGDLKYNDFNGDGIIDGSDQHRIGKNSMPRGQYGFSADLNYKGWFMNMLWQGATPADLYMGGMIQGSQSGSGYPPVIYDFQTDVWTPNNTGARYPRLRSTASYNGSNNYGSSDFWLINTGYLRLKTLSIGYDFKHKLLKRVAWMNKCNVSLNGYNLLTFSKANKFDIDPEIGDGNLYTYPVSRVYSISVNVGF | not soluble
14 | HHHHDYDIPTTENLYFQGHMTIHKKGQAHWEGDIKRGKGTVSTESGVLNQQPYGFNTRFEGEKGTNPEELIGAAHAACFSMALSLMLGEAGFTPTSIDTTADVSLDKVDAGFAITKIALKSEVAVPGIDASTFDGIIQKAKAGCPVSQVLKAEITLDYQLKS | soluble
15 | HHHHHHDEKRRPKRREIPLKVLVKAVLFACMLMRKTMASRVRVTILFATETGKSEALAWDLGALFSCAFNPKVVCMDKYRLSCLEEERLLLVVTSTFGNGDCPGNGEKLKKSLFMLKELNNKFRYAVFGLGSSMYPRFCAFAHDIDQKLSHLGASQLTPMGEGDELSGQEDAFRSWAVQTFKAACETFDVRGKQHIQIPKLYTSNVTWDPHHYRLVQDS | soluble
16 | HHHHHHMAEKKQWHETLHDQFGQYFAVDNVLYHEKTDHQDLIIFENAAFGRVMALDGVVQTTERDEFIYHEMMTHVPLLAHGHAKHVLIIGGGDGAMLREVTRHKNVESITMVEIDAGVVSFCRQYLPNHNAGSYDDPRFKLVIDDGVNFVNQTSQTFDVIISDCTDPIGPGESLFTSAFYEGCKRCLNPGGIFVAQNGVCFLQQEEAIDSHRKLSHYFSDVGFYQAAIPTYYGGIMTFAWATDNDALRHLSTEIIQARFLASGLKCRYYNPAIHTAAFALPQYLQDALASQPS | soluble
17 | HHHHHHQVQLVQSGAEVKKPGASVKVSCQASGYRFSHFTVHWVRQAPGQRFEWMGWINPYNGNKEFSAKFQDRVTFTADTSANTAYMELRSLRSADTAVYYCARVGEWGWDDSPYDNYYMDVWGKGTTVIVSSGGGGSGGGGSGGGGSEIVLTQAPGTLSLSPGERATFSCRSSHSIRSRRVAWYQHKPGQAPRLVIHGVSNRASGISDRFSGSGSGTDFTLTITRVEPEDFALYYCQVYGASSYTFGQGTKLERK | soluble
18 | HHMAQANFGVVGMAVMGKNLALNVESRGYTVAIYNRTTSKTEEVFKEHQDKNLVFTKTLEEFVGSLEKPRRIMLMVQAGAATDATIKSLLPLLDIGDILIDGGNTHFPDTMRRNAELADSGINFIGTGVSGGEKGALLGPSMMPGGQKEAYDLVAPIFEQIAAKAPQDGKPCVAYMGANGAGHYVKMVHNGIEYGDMQLIAESYDLLKRILGLSNAEIQAIFEEWNEGELDSYLIEITKEVLKRKDDEGEGYIVDKILDKAGNKGTGKWTSESALDLGVPLPLITESVFARYISTYKDERVKASKVLSGPALDFSGDKKEVIEKIRKALYFSKIMSYAQGFAQLRKASEEFDWDLPYGTIAQIWRAGCIIRAEFLQNITDAFDKDSELENLLLDDYFVDITKRYQEAVRDVVSLAVQAGTPIPTFTSAISYYDSYRSENLPANLIQAQRDYFGAHTYERTDKAGIFHYDWYTED | soluble
19 | HHMDEEYDVIVLGTGLTECILSGIMSVNGKKVLHMDRNPYYGGESSSITPLEELYKRFQLLEGPPETMGRGRDWNVDLIPKFLMANGQLVKMLLYTEVTRYLDFKVVEGSFVYKGGKIYKVPSTETEALASNLMGMFEKRRFRKFLVFVANFDENDPKTFEGVDPQNTSMRDVYRKFDLGQDVIDFTGHALALYRTDDYLDQPCLETINRIKLYSESLARYGKSPYLYPLYGLGELPQGFARLSAIYGGTYMLNKPVDDIIMENGKVVGVKSEGEVARCKQLICDPSYVPDRVRKAGQVIRIICILSHPIKNTNDANSCQIIIPQNQVNRKSDIYVCMISYAHNVAAQGKYIAIASTTVETTDPEKEVEPALELLEPIDQKFVAISDLYEPIDDGSESQVFCSCSYDATTHFETTCNDIKDIYKRMAGSAFDFENMKRKQNDVFGEADQ | soluble
20 | HKEDKEDFAELSGIAVPAEITAEDGTMFKEALLFTHRGLSGPSVLQISSFWKAGQKVSINLVPNEDIALLLERSLEKHPNQSLKNTLAKVLPKRLVEVLIERKELMDKPLKQFNPKELASVVERLENWSIAPNGTEGYRTAEVTLGGVDTDHLSSKTMECKNIKGLYFIGEVMDVTGWLGGYNFQWCWSSGFVAGQWV | not soluble
21 | HLGEHEVPGHLMDFVTTYSTNLAVPQRRDADDERVLAGKKLFYQANCVACHVPKYVTRRDAAQPEHRFQLIWPYTDMLLHDMGDGLADGVSEEQANGREWRTPPLWGIGLTRLVNPSATWLHDGRARTLLEAVLWHGGEAQAARDRVVAMSPGERADLIRFLESL | not soluble
22 | HLPETIYVIRKGDMVIRPKYDEYQQTNGTEIIRFDQTRKESPFKVQRIIERSCKFYGNNYISKKAETNRITGISSKPPILLTPLFPTYFFPTHSDRQEENIWINMHYIENVKELKNRKSKIIFANGDSLTLNVSFHSLWHQYTNAIIYYYMVDKQSRMKSNNPEQPIDYNQSSLNIFEALSRYSLFEEN | not soluble
23 | HLYPGEVCPGMDIRNNLTRLHELENCSVIEGHLQILLMFKTRPEDFRDLSFPKLIMITDYLLLFRVYGLESLKDLFPNLTVIRGSRLFFNYALVIFEMVHLKELGLYNLMNITRGSVRIEKNNELCYLATIDWSRILDSVEDNHIVLNKDDNEECGDICPGTAKGKTNCPATVINGQFVERCWTHSHCQKVCPTICKSHGCTAEGLCCHSECLGNCSQPDDPTKCVACRNFYLDGRCVETCPPPYYHFQDWRCVNFSFCQDLHHKCKNSRRQGCHQYVIHNNKCIPECPSGYTMNSSNLLCTPCLGPCPKVCHLLEGEKTIDSVTSAQELRGCTVINGSLIINIRGGNNLAAELEANLGLIEEISGYLKIRRSYALVSLSFFRKLRLIRGETLEIGNYSFYALDNQNLRQLWDWSKHNLTITQGKLFFHYNPKLCLSEIHKMEEVSGTKGRQERNDIALKTNGDQASCENELLKFSYIRTSFDKILLRWEPYWPPDFRDLLGFMLFYKEAPYQNVTEFDGQDACGSNSWTVVDIDPPLRSNDPKSQNHPGWLMRGLKPWTQYAIFVKTLVTFSDERRTYGAKSDIIYVQTDATNPSVPLDPISVSNSSSQIILKWKPPSDPNGNITHYLVFWERQAEDSELFELDYCLKGLKLPSRTWSPPFESEDSQKHNQSEYEDSAGECCSCPKTDSQILKELEESSFRKTFEDYLHNVVFVPRPSRKRRSLGDVGNHGNNVPTVAAFPNTSSTSVPTSPEEHRPFEKVVNKESLVISGLRHFTGYRIELQACNQDTPEERCSVAAYVSARTMPEAKADDIVGPVTHEIFENNVVHLMWQEPKEPNGLIVLYEVSYRRYGDEELHLCDTRKHFALERGCRLRGLSPGNYSVRIRATSLAGNGSWTEPTYFYVTDYLDVPSNIAK | soluble
